Measured values reported in US20220195407, “OPTIMIZATION OF ENGINEERED MEGANUCLEASES FOR RECOGNITION SEQUENCES” (Precision BioSciences, Inc., published 2022).
Substitutions are numbered along the chain they refer to.

Legend:
Test in all cases: cell_activity; CHO iGFFP reporter
LOX 3-4m.1345 = molecular target: T1, LOX 3-4m.1345 (artificial (I-CreI derived))
T1 chain: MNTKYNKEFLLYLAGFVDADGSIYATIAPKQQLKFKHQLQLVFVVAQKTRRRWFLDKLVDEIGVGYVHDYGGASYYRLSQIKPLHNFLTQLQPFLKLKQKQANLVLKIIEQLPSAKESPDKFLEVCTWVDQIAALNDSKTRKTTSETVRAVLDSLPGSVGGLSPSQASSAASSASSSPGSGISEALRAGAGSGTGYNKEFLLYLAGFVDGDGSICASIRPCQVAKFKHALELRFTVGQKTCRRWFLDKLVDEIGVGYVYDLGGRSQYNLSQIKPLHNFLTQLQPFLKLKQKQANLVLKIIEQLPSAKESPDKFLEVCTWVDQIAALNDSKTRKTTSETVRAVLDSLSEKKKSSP
From the text: (§1) A CHO cell reporter system (see WO/2012/167192, FIG. 3) was used to determine whether the engineered meganucleases generated in these studies could recognize and cleave the modified LOX 3-4 recognition sequences in Table 87. To perform the assay, a pair of CHO cell reporter lines were produced, which carried a non-functional Green Fluorescent Protein (GFP) gene expression cassette integrated into the genome of the cell. The GFP gene in each cell line was interrupted by a pair of recognition sequences such that intracellular cleavage of either recognition sequence by a meganuclease would stimulate a homologous recombination event resulting in a functional GFP gene. In both cell lines, one of the recognition sequences was derived from the LOX 3-4 recognition sequence (i.e., those sequences disclosed in Table 87), and the second recognition sequence was specifically recognized by a control meganuclease called “CHO 23/24.” CHO reporter cells comprising a recognition sequence derived from the LOX 3-4 recognition sequence and the CHO 23/24 recognition sequence are referred to herein as “test cells.”
(§2) Novel engineered meganucleases derived from the LOX 3-4x.109 meganuclease were prepared by making amino acid substitutions at one or more positions in the first subunit and one or more positions in the second subunit. These engineered meganucleases were then evaluated for cleavage of the LOX 3-4 recognition sequence modified to have an ATAG center sequence (SEQ ID NO: 184) in the CHO reporter assay according to Example 1.

LOX 3-4m.1415 = molecular target: T2, LOX 3-4m.1415 (artificial (I-CreI derived))
T2 chain: T1 chain with G72R, Q80E, V250A, K330R
From the text: as §1, §2

LOX 3-4m.1329 = molecular target: T3, LOX 3-4m.1329 (artificial (I-CreI derived))
T3 chain: T1 chain with K48H, G72R
From the text: as §1, §2

LOX 3-4m.1353 = molecular target: T4, LOX 3-4m.1353 (artificial (I-CreI derived))
T4 chain: T1 chain with G72R, K227R, V250A, G263S, K330R
From the text: as §1, §2

LOX 3-4m.765 = molecular target: T5, LOX 3-4m.765 (artificial (I-CreI derived))
T5 chain: T1 chain with G72R, K139R, K239S, C241R, G263R, R264I, S265A, Q271E, K330R
From the text: as §1
as §2, with “ACAA” for “ATAG”, “9)” for “184)”

LOX 3-4m.750 = molecular target: T6, LOX 3-4m.750 (artificial (I-CreI derived))
T6 chain: T1 chain with R50C, G72R, K239A, C241R, G263R, R264I, Q271E, K330R
From the text: as §1
as §2, with “ACAA” for “ATAG”, “9)” for “184)”

LOX 3-4m.684 = molecular target: T7, LOX 3-4m.684 (artificial (I-CreI derived))
T7 chain: T1 chain with G72R, K239S, C241R, G263T, R264I, S265T, Q271E, K330R
From the text: as §1
as §2, with “ACAA” for “ATAG”, “9)” for “184)”

LOX 3-4m.1293 = molecular target: T8, LOX 3-4m.1293 (artificial (I-CreI derived))
T8 chain: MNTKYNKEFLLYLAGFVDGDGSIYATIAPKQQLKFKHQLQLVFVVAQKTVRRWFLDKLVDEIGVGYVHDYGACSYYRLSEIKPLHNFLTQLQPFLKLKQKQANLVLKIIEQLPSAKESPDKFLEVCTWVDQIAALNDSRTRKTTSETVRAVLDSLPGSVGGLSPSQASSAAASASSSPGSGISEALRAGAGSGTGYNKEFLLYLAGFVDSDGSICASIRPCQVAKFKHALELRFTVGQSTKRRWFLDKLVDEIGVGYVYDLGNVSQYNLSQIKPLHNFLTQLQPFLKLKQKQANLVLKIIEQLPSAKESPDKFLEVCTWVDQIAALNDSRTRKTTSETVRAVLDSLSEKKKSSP
From the text: as §1
as §2, with “ATAA” for “ATAG”, “157)” for “184)”

LOX 3-4m.1269 = molecular target: T9, LOX 3-4m.1269 (artificial (I-CreI derived))
T9 chain: T1 chain with K48H, G72H, A73C, K139R, K239T, C241R, R264I, Q271E, K330R
From the text: as §1
as §2, with “ATAA” for “ATAG”, “157)” for “184)”

LOX 3-4m.1236 = molecular target: T10, LOX 3-4m.1236 (artificial (I-CreI derived))
T10 chain: T1 chain with K48H, R50T, G72R, K239A, C241K, G263Q, R264V, S265A, K330R
From the text: as §1
as §2, with “ATAA” for “ATAG”, “157)” for “184)”

LOX 3-4m.1237 = molecular target: T11, LOX 3-4m.1237 (artificial (I-CreI derived))
T11 chain: T1 chain with K48A, R50I, G72R, C241E, R264V, S265A
From the text: as §1
as §2, with “ATAA” for “ATAG”, “157)” for “184)”

B1: LOX 3-4 ATAG (dsDNA)
DNA 1: GTATAGCATATAGTATACGAAG
DNA 2: CTTCGTATACTATATGCTATAC
activity (LOX 3-4m.1345): 14 % GFP | activity (LOX 3-4m.1415): 13.1 % GFP | activity (LOX 3-4m.1329): 15.5 % GFP | activity (LOX 3-4m.1353): 15.6 % GFP

B2: LOX 3-4 ACAA (dsDNA)
DNA 1: GTATAGCATACAATATACGAAG
DNA 2: CTTCGTATATTGTATGCTATAC
activity (LOX 3-4m.765): 9.32 % GFP | activity (LOX 3-4m.750): 9.32 % GFP | activity (LOX 3-4m.684): 9.14 % GFP

B3: LOX 3-4 ATAA (dsDNA)
DNA 1: GTATAGCATATAATATACGAAG
DNA 2: CTTCGTATATTATATGCTATAC
activity (LOX 3-4m.1293): 8 % GFP | activity (LOX 3-4m.1269): 8.64 % GFP | activity (LOX 3-4m.1236): 9.28 % GFP | activity (LOX 3-4m.1237): 8.13 % GFP
